Source: publication PMC11259713, “Splicing factor hnRNPA1 regulates alternative splicing of LOXL2 to enhance the production of LOXL2Δ13”

Experiments:
Conditions in all cases: protein: recombinant; tags: His (pET-32a vector)
hnRNPA1-His (hnRNPA1A) [1] = molecular target: T1, hnRNPA1-His (hnRNPA1A) (UniProt P09651-2 1-320); assay: BLI; protein on Ni-NTA probe; KD only in figure; BLI: PBS, 0.002% Tween-20, 0.02% BSA, temperature not stated; pull-down: lysate in 150 mM KCl, 0.5 mM DTT, 0.5% NP-40, 25 mM Tris-HCl pH 7.5, 4 C overnight
S91A/S95A-His = S91A/S95A-His (UniProt P09651-2 1-320, S91A;S95A); assay: BLI; protein on Ni-NTA probe; affinity and amount higher than WT; KD only in figure; BLI: PBS, 0.002% Tween-20, 0.02% BSA, temperature not stated; pull-down: lysate in 150 mM KCl, 0.5 mM DTT, 0.5% NP-40, 25 mM Tris-HCl pH 7.5, 4 C overnight
S91D/S95D-His = S91D/S95D-His (UniProt P09651-2 1-320, S91D;S95D); assay: BLI; similar or stronger affinity than WT but reduced binding amount; KD only in figure; BLI: PBS, 0.002% Tween-20, 0.02% BSA, temperature not stated; pull-down: lysate in 150 mM KCl, 0.5 mM DTT, 0.5% NP-40, 25 mM Tris-HCl pH 7.5, 4 C overnight
hnRNPA1-His (hnRNPA1A) [2] = molecular target: T1, hnRNPA1-His (hnRNPA1A); assay: pull-down; purified protein; BLI: PBS, 0.002% Tween-20, 0.02% BSA, temperature not stated; pull-down: lysate in 150 mM KCl, 0.5 mM DTT, 0.5% NP-40, 25 mM Tris-HCl pH 7.5, 4 C overnight
hnRNPA1-His (hnRNPA1A) [3] = molecular target: T1, hnRNPA1-His (hnRNPA1A); assay: BLI; RNA on streptavidin probe; lower KD than oligo2 but less protein bound; value only in figure; BLI: PBS, 0.002% Tween-20, 0.02% BSA, temperature not stated; pull-down: lysate in 150 mM KCl, 0.5 mM DTT, 0.5% NP-40, 25 mM Tris-HCl pH 7.5, 4 C overnight

T1 sequence (P09651 other isoform, or with tags, fused parts or gaps): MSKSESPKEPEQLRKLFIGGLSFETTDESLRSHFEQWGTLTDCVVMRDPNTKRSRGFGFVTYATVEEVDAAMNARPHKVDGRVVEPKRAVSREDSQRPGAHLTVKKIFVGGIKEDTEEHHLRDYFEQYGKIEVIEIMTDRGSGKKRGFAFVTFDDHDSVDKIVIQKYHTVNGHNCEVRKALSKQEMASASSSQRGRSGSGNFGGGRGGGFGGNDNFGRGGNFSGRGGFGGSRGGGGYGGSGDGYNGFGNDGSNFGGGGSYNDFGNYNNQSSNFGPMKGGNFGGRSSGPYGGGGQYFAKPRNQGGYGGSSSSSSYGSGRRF
Chain of S91D/S95D-His (P09651 other isoform, or with tags, fused parts or gaps S91D;S95D | S91D S95D S91D S95D): as the sequence (P09651 other isoform, or with tags, fused parts or gaps) above, with S91D, S95D counted along it
Chain of S91A/S95A-His (P09651 other isoform, or with tags, fused parts or gaps S91A;S95A | S91A S95A S91A S95A): as the sequence (P09651 other isoform, or with tags, fused parts or gaps) above, with S91A, S95A counted along it

Binder: ACAACUGCCACAUAGGUAAGGCCAGGCCGC (ssRNA) [oligo2]
- binding result (hnRNPA1-His (hnRNPA1A) [1]): binds
- binding result (S91A/S95A-His): binds
- binding result (S91D/S95D-His): binds

Binder: AGCAGCCUCCUCUGCCCUGCUUCUCCCUAGGUUGUU (ssRNA) [oligo1]
- binding result (hnRNPA1-His (hnRNPA1A) [2]): binds

Binder: ACAACUGCCACACCGGUAAGGCCAGGCCGC (ssRNA) [oligo2-U13C+A14C]
- binding result (hnRNPA1-His (hnRNPA1A) [3]): binds
